In US9999664B2, “HIV-1 gp120 mini V3 loop and uses thereof” (The Scripps Research Institute, priority 2011, dated 2018):

Tests used:
gp120 BaL (HIV-1 BaL) = assay: gp120 ELISA
[1] = biological target: gp120 JR-CSF (HIV-1 JR-CSF) (UniProt P20871); assay: gp120 ELISA
[2] = biological target: gp120 JR-FL (HIV-1 JR-FL); assay: gp120 ELISA
[3] = biological target: HIV-1 BaL envelope (Env) on pseudovirus (HIV-1 BaL); assay: cell-based or functional assay
[4] = biological target: HIV-1 JR-CSF envelope (Env) on pseudovirus (HIV-1 JR-CSF) (UniProt P20871); assay: cell-based or functional assay
[5] = biological target: HIV-1 JR-FL envelope (Env) on pseudovirus (HIV-1 JR-FL); assay: cell-based or functional assay
[6] = biological target: gp120 (ELISA antigen of FIG. 3, strain not stated) (HIV-1, strain not stated); assay: ELISA on coated gp120, absorbance at 405 nm
[7] = biological target: HIV-1 JR-FL envelope (Env) on pseudovirus (HIV-1 JR-FL)
[8] = biological target: HIV-1JR-FL Env trimers on the surface of transfected 293T cells (Human immunodeficiency virus 1, strain JR-FL); assay: JR-FL cell surface binding, flow cytometry on transfected 293T cells
PGT 127 = assay: Neoglycolipid microarray binding, PGT 127; conditions: PGT 127 at 10 μg/ml pre-complexed with biotinylated anti-human-IgG; 5 fmol/spot
Protocol: (§1) The microarrays (designated N-glycan-related Array Set 1) consisted of NGLs prepared by reductive amination (70) or oxime ligation (71) (Table S5). These were robotically printed onto nitrocellulose-coated glass slides as described (72), each at two levels (2 and 5 fmol/spot) in duplicate. The binding assays (70) were performed at ambient temperature. The PGTs 127 and 128 were pre-complexed with biotinylated anti-human-IgG (Vector) at a 1:3 ratio, w/w, before applying onto the slides at a final concentration of 10 μg/ml. Biotinylated ConA (Vector) was tested at 0.5 μg/ml. Binding was detected with Alexa-Fluor 647 labelled streptavidin (Molecular Probes) at 1 μg/ml. Microarray data analysis was performed with dedicated software. Binding signals were oligosaccharide dose-related. Results at 5 fmol/spot with selected oligomannose NGLs (prepared by reductive amination) are in FIG. 9A, and the full data with the 50 NGLs are shown in Table S6. Included for comparison are the results with human 2G12 (Polymun Scientific) taken from an earlier experiment performed using a different version of microarrays (73). Antibody 2G12 was analyzed at 1:10000 dilution (without pre-complexation), and the binding was detected with biotinylated anti-human-IgG followed by Alexa-Fluor 647 labelled streptavidin.

PGT 128 = assay: Neoglycolipid microarray binding, PGT 128; conditions: PGT 128 at 10 μg/ml pre-complexed with biotinylated anti-human-IgG; 5 fmol/spot
Protocol: as §1

plant lectin ConA = biological target: T1, plant lectin ConA (Canavalia ensiformis, UniProt P02866); assay: Neoglycolipid microarray binding, ConA; conditions: biotinylated ConA at 0.5 μg/ml
T1 construct: purchased Vector
Protocol: as §1

2G12 = 2G12 at 1:10000 dilution; earlier experiment, different version of the microarray; cited from earlier work

Row | Molecule | fold change in gp120 binding (EC50 variant/EC50 WT) (gp120 BaL (HIV-1 BaL)) | fold change in gp120 binding (EC50 variant/EC50 WT) [1] | fold change in gp120 binding (EC50 variant/EC50 WT) [2] | Fold change in neutralization (IC50 variant/IC50 WT antibody) [3] | Fold change in neutralization (IC50 variant/IC50 WT antibody) [4] | further results
1 | PGT 128 IgG variant HC N33A (antibody) | 0.8 fold | 0.5 fold | 0.6 fold | 0.4 fold | 0.7 fold | 
2 | PGT 128 IgG variant HC W52fA (antibody) | 1.5 fold | 1.5 fold | 1 fold | 29.5 fold | 3.9 fold | Fold change in neutralization (IC50 variant/IC50 WT antibody) [5]: 34.5 fold
3 | PGT 128 IgG variant HC D27A (antibody) | 1.1 fold | 1.1 fold | 1 fold | 1.6 fold | 0.9 fold | 
4 | PGT 128 IgG variant HC A30S (antibody) | 0.6 fold | 0.8 fold | 0.7 fold | 1.4 fold | 0.9 fold | 
5 | PGT 128 IgG variant HC H52aA (antibody) | 2.4 fold | 64 fold | 2.8 fold | 9.8 fold | 2.4 fold | Fold change in neutralization (IC50 variant/IC50 WT antibody) [5]: 146 fold; EC50 (read off the curve) [6]: 0.09 µg/mL
6 | PGT 128 IgG variant HC L51A (antibody) | 1.5 fold | 0.7 fold | 0.7 fold | 1.2 fold | 1.2 fold | 
7 | PGT 127 Fab |  |  |  |  |  | IC50 (JR-FL neutralization) [7]: 0.0146 µM; EC50 [8]: 0.0127 µM
8 | PGT 128 IgG variant HC L100A (antibody) | 1.3 fold | 1.7 fold |  | 2 fold | 0.8 fold | 
9 | PGT 128 IgG variant HC R100aA (antibody) | 1.5 fold | 0.7 fold | 1 fold | 2.1 fold | 1.3 fold | 
10 | 2G12 IgG (antibody) |  |  |  |  |  | IC50 (JR-FL neutralization) [7]: 0.0085 µM; EC50 [8]: 0.0116 µM
11 | PGT 128 Fab |  |  |  |  |  | IC50 (JR-FL neutralization) [7]: 0.0063 µM; EC50 [8]: 0.0103 µM
12 | CCCCCCCCCCCCCCCCOCC(COP(=O)(O)OCCNCC(NC(C)=O)C(O)C(OC1OC(CO)C(OC2OC(COC3OC(CO)C(O)C(O)C3O)C(O)C(OC3OC(CO)C(O)C(O)C3O)C2OC2OCC(O)C(O)C2O)C(O)C1NC(C)=O)C(O)CO)OCCCCCCCCCCCCCCCC (stereo not drawn) [Man3XylGN2-DH] |  |  |  |  |  | Fluorescence signal intensity 127 (PGT 127): — (Signal less than 1); Fluorescence signal intensity 128 (PGT 128): — (Signal less than 1); Fluorescence signal intensity ConA (plant lectin ConA): 977; Fluorescence signal intensity 2G12 (2G12): — (Signal less than 1)
13 | PGT 128 IgG variant HC G55D (antibody) | 2.5 fold | 0.7 fold | 1.4 fold | 2.3 fold | 2 fold | 
